Molecular target: human thrombin (human) (UniProt P00734)
Assay: cell-based or functional assay

- thrombin inhibition (residual thrombin activity by chromogenic assay); 1 µM dose, wall shear rate 2,000 sec^-1: > 85%
Substance: recombinant DES.N135A ATIII (from UniProt P01008 33-464)

Reference: patent publication US20070259809A1
